The text below walks through data of US20170298331.

In one data set the test system is TALEN TN3 (Artificial). Put plainly: cell_activity. The note with it: pair TN3/8, 17 bp spacer, preceded by 5'-T; Surveyor assay in DMD myoblasts (up to 12.7% and 6.8% in two lines).
In another data set the test system is TALEN TN8 (Artificial). Nature of the data set: cell_activity. As to conditions: pair TN3/8, 17 bp spacer, preceded by 5'-T; Surveyor assay in DMD myoblasts (up to 12.7% and 6.8% in two lines).

For the sequence “AGCTCCTACTCAGACT (double strand) [TN3 half-site, DMD exon 51]”, the activity (% modified alleles) in the data set with TALEN TN3 (Artificial) was 12.7.

Regarding “CCTTAGTAACCACAGGT (double strand) [TN8 half-site, DMD exon 51]”, in the data set with TALEN TN8 (Artificial), the activity (% modified alleles) was found to be 12.7.
